Assay results taken from patent US20070237775A1 (Eli Lilly, published 2007).

T1: human ghrelin peptide spanning amino acids 20-28 (human)
T1 construct: also called hGhrelin 20-28
T1 peptide: KPPAKLQPR

T2: human ghrelin peptide spanning amino acids 4-20 (human)
T2 peptide: FLSPEHQRVQQRKESKK

T3: human ghrelin peptide spanning amino acids 18-28 (human)
T3 construct: also called hGhrelin 18-28; ghrelin peptide 18-28
T3 peptide: SKKPPAKLQPR


Experiments:
[1] = biological target: T1, human ghrelin peptide spanning amino …; assay: peptide competition with full-length hGhrelin for the Fab
[2] = biological target: T2, human ghrelin peptide spanning amino …; assay: FLIPR calcium assay, peptide competing with hGhrelin for the Fab
Experimental: (§1) The wells are then washed twice with HBSS and 50 μL FLIPR buffer is then added per well.
(§2) Samples are prepared by combining 7.2 μl calcium concentrate (CaCl₂-2H₂O in water at 3.7 mg/ml mixed 1:1 with HBSS and filter sterilized) with 30 μl peptide, 30 μl Fab (of varying concentration), and 16.8 μl hGhrelin (2.5 μM stock) in 3.75% BSA/50% HBSS. The final concentration of the sample solution is 0.75% BSA, and calcium at approximately the same concentration as in the FLIPR buffer. Fifty microliters of the sample solution is added to the 50 μl FLIPR buffer in the well with the AV12 cells. The final concentration of the peptide is 100 nM and the final concentration of the hGhrelin is 0.83 nM. The cell plate is shaken for about 15 seconds prior to loading it into the FLIPR instrument. Test samples or control samples are added to each well, and read by a Fluorometric Imaging Plate Reader (Molecular Devices).
(§3) If there is no Fab or an irrelevant antibody present in the solution, the full-length hGhrelin will be free to bind the GHS-R1a receptor on the AV12 cells and signal transduction will occur resulting in comparatively high values in the assay. If a Fab is present that binds to the full-length hGhrelin in the solution, then the full-length hGhrelin binding to the GHS-R1a receptor is inhibited and signal transduction is thereby inhibited resulting in comparatively lower values in the assay. However, if a peptide (i.e., a fragment of human ghrelin) is also added to the solution and the Fab binds the peptide, then the full-length hGhrelin is not prevented from binding the GHS-R1a receptor, signal transduction is not inhibited, and the values in the assay are comparatively high. […] The peptides competing with hGhrelin for Fab binding were used in the assay at a concentration over 50 times that of hGhrelin.

[3] = biological target: T3, human ghrelin peptide spanning amino …; assay: as above
Experimental: as §1, §2, §3

| binding result [1] | binding result [2] | binding result [3] | Binder |
| --- | --- | --- | --- |
| no binding | no binding (tested: peptide 100 nM) | no binding (tested: peptide 100 nM) | Fab 3281 (Fab, V domains shown, Murine Fab from an Omniclonal antibody library (immunized C57/Bl6 mice); kappa light chain (captured and detected with goat anti-mouse kappa)) VH: QVQLQQSRAELAKPGASVKMSCKASGYTFTSYWMHWVKQGPGQGLEWIGYINPSTGYTEYTQKFKDKATLTADKSSSTAYMQLSSLTSEDSAVYYCATDGYDEDYWGQGTTLTVSS VL: DAVMTQIPLTLSVTIGQPASISCRSSQSLGHSNGNTYLHWYLQKPGQSPKLLIYKVSNRFSGVPDRFSGSGSGTDFTLKISRVEAEDLGTYFCSQSTLVPWTFGGGTKLEIKR |
| – | no binding (tested: peptide 100 nM) | – | Fab 4281 (Fab, V domains shown, Murine Fab, kappa light chain) VH: QVQLQQSRAELAKPGASVKMSCKASGYTFTSYWIHWIKQRPGQGLEWIGYIDPGIGNIEYNQKFQDKATLTADKSSSIVYMQLNRLTSEDSAVYYCATDGYDEDYWGQGTTLTVSS VL: DVVMTQTPLSLPVSLGDQASISCRSSQSLVHSNGNTYLHWYLQKPGQSPKLLIYKVSNRFSGVPDRFSGSGSGTDFTLKISRVEAEDLGTYFCSQSTLVPWTFGGGTKLEIKR |
| – | no binding (tested: peptide 100 nM) | – | Fab 4731 (Fab, V domains shown, Murine Fab, kappa light chain) VH: QVQLQQSRAELAKPGASVKMSCKASGYTFTSYWMHWVKQGPGQGLEWIGYINPSTGYTEYTQKFKDKATLTADKSSSTAYMQLSSLTSEDSAVYYCATDGYDEDYWGQGTTLTVSS VL: DVVMTQTPLSLPVSLGDQASISCRSSQSLVHSNGNTYLHWYLQKPGQSPKLLIYKVSNRFSGVPDRFSGSGSGTDFTLKISRVEAEDLGTYFCSQSTLVPWTFGGGTKLEIKR |
